This assay addresses HA-1 “H” peptide (…) presented on LCL222 cells (H/H). The assay is described as follows: cell-based or functional assay.

B1: anti-HA-1 “H” epitope TCR (TCR, V domains shown)
V domain 1: AQSVAQPEDQVNVAEGNPLTVKCTYSVSGNPYLFWYVQYPNRGLQFLLKYITGDNLVKGSYGFEAEFNKSQTSFHLKKPSALVSDSALYFCAVRAPTSGTYKYIFGTGTRLKVLA
V domain 2: GVSQDPRHKITKRGQNVTFRCDPISEHNRLYWYRQTLGQGPEFLTYFQNEAQLEKSRLLSDRFSAERPKGSFSTLEIQRTEQGDSAMYLCASSLVSGNEQFFGPGTRLTVLE
On to B1, for which the “E:T ratio at which target cells were almost undetectable, cytotoxicity killing assay” value is 1.38 E:T ratio and the “EC50, cytotoxicity killing assay (E:T ratio)” value is 0.49 E:T ratio.

For the origin of these results see patent publication US20250242021A1 (BLUESPHERE BIO, published 2025).
